In US20130109618:

Experiments:
Tat-Cit57 (HIV-1?) [1] = assay: FP; details: 50 mM Tris-HCl pH 7.4, 20 mM KCl, 0.02% Tween-20, room temperature
Tat-Cit55 (HIV-1?) [2] = assay: FP; details: 50 mM Tris-HCl pH 7.4, 20 mM KCl, 0.02% Tween-20, room temperature
[3] = tested on: AghTat (all six Arg replaced by Agh) (HIV-1?); assay: FP; details: apparent; 1:1 fit; 50 mM Tris-HCl pH 7.4, 20 mM KCl, 0.02% Tween-20, room temperature
Tat-Cit49 (HIV-1?) [4] = assay: FP; details: 50 mM Tris-HCl pH 7.4, 20 mM KCl, 0.02% Tween-20, room temperature
[5] = tested on: AgbTat (all six Arg replaced by Agb) (HIV-1?); assay: FP; details: apparent; 1:1 fit; 50 mM Tris-HCl pH 7.4, 20 mM KCl, 0.02% Tween-20, room temperature
Tat-Cit52 (HIV-1?) [6] = assay: FP; details: 50 mM Tris-HCl pH 7.4, 20 mM KCl, 0.02% Tween-20, room temperature
Tat-Cit56 (HIV-1?) [7] = assay: FP; details: 50 mM Tris-HCl pH 7.4, 20 mM KCl, 0.02% Tween-20, room temperature
Tat-Cit53 (HIV-1?) [8] = assay: FP; details: 50 mM Tris-HCl pH 7.4, 20 mM KCl, 0.02% Tween-20, room temperature
[9] = tested on: ArgTat (Tat(47-57), Tat-Arg) (HIV-1?); assay: FP; details: apparent; 1:1 fit; 50 mM Tris-HCl pH 7.4, 20 mM KCl, 0.02% Tween-20, room temperature, 25 nM RNA
Tat-Cit57 (HIV-1?) [10] = assay: EMSA; details: with 10 ug/mL poly(dI-dC), 25 C
Tat-Cit55 (HIV-1?) [11] = assay: EMSA; details: with 10 ug/mL poly(dI-dC), 25 C
[12] = tested on: AghTat (all six Arg replaced by Agh) (HIV-1?); assay: EMSA; details: apparent; with 10 ug/mL poly(dI-dC); 50 mM Tris-HCl pH 7.4, 50 mM KCl
Tat-Cit49 (HIV-1?) [13] = assay: EMSA; details: with 10 ug/mL poly(dI-dC), 25 C
[14] = tested on: Ac-Agp57-Tat(47-57)-NH2 (HIV-1?); assay: EMSA; details: with 10 ug/mL poly(dI-dC); unit inferred, inferred nM from comparison with 67 ± 19
[15] = tested on: AgbTat (all six Arg replaced by Agb) (HIV-1?); assay: EMSA; details: apparent; with 10 ug/mL poly(dI-dC); 50 mM Tris-HCl pH 7.4, 50 mM KCl
Tat-Cit52 (HIV-1?) [16] = assay: EMSA; details: with 10 ug/mL poly(dI-dC), 25 C
Tat-Cit56 (HIV-1?) [17] = assay: EMSA; details: with 10 ug/mL poly(dI-dC), 25 C
Tat-Cit53 (HIV-1?) [18] = assay: EMSA; details: with 10 ug/mL poly(dI-dC), 25 C
[19] = tested on: ArgTat (Tat(47-57), Tat-Arg) (HIV-1?); assay: EMSA

With HIV TAR RNA (F-TAR-RNA) the Kd (Tat-Cit57 (HIV-1?) [1]) was 49 nM, the Kd (Tat-Cit55 (HIV-1?) [2]) was 99 nM and the Kd [3] was 36 nM. It also gave a Kd (Tat-Cit49 (HIV-1?) [4]) of 94 nM, a Kd [5] of 32 nM and a Kd (Tat-Cit52 (HIV-1?) [6]) of 116 nM. The Kd (Tat-Cit56 (HIV-1?) [7]) was 55 nM, the Kd (Tat-Cit53 (HIV-1?) [8]) was 102 nM and the Kd [9] was 25 nM. For the same substance, the Kd (Tat-Cit57 (HIV-1?) [10]) was 146 nM, the Kd (Tat-Cit55 (HIV-1?) [11]) was 279 nM and the Kd [12] was 450 nM. The Kd (Tat-Cit49 (HIV-1?) [13]) was 138 nM, the Kd [14] was 56 nM and the Kd [15] was 31 nM. For the same substance, the Kd (Tat-Cit52 (HIV-1?) [16]) was 235 nM, the Kd (Tat-Cit56 (HIV-1?) [17]) was 164 nM and the Kd (Tat-Cit53 (HIV-1?) [18]) was 344 nM. For the same substance, the Kd [19] was 67 nM.
